Measurements published in patent US20230235013A1 (MABSOLVE, published 2023).
Residue numbers refer to the chain shown, from its start. Names and notes keep the numbering of the source.

Target: T1, Histidine-tagged recombinant human FcγRI (CD64) (human, UniProt P12314 16-288)
T1 construct: bought; also called Sino Biological Cat. No. 12056-H08H
Assay: SPR, culture supernatant, captured His-FcγRI;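 further: biacore T200 SPR at 25 °C, anti-His capture, supernatants of HEK293 cells expressing IgG1 Fc variants injected 1 min, reference-subtracted response read 55 s after injection start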

B1: anti-CD20 human IgG1 L234A/L235A/G236R (antibody)
heavy: not shown
light: QIVLSQSPAILSASPGEKVTMTCRASSSVSYIHWFQQKPGSSPKPWIYATSNLASGVPVRFSGSGSGTSYSLTISRVEAEDAATYYCQQWTSNPPTFGGGTKLEIKRTVAAPSVFIFPPSDEQLKSGTASVVCLLNNFYPREAKVQWKVDNALQSGNSQESVTEQDSKDSTYSLSSTLTLSKADYEKHKVYACEVTHQGLSSPVTKSFNRGEC
notes: also called 1-2; 2-2; copies: 2 + 2
Work on B1 yielded a Mean binding response of 30.7 RU.

B2: anti-CD20 human IgG1 L234D/L235N/G236R (antibody)
heavy: QVQLQQPGAELVKPGASVKMSCKASGYTFTSYNMHWVKQTPGRGLEWIGAIYPGNGDTSYNQKFKGKATLTADKSSSTAYMQLSSLTSEDSAVYYCARSTYYGGDWYFNVWGAGTTVTVSSASTKGPSVFPLAPSSKSTSGGTAALGCLVKDYFPEPVTVSWNSGALTSGVHTFPAVLQSSGLYSLSSVVTVPSSSLGTQTYICNVNHKPSNTKVDKKVEPKSCDKTHTCPPCPAPEDNRGPSVFLFPPKPKDTLMISRTPEVTCVVVDVSHEDPEVKFNWYVDGVEVHNAKTKPREEQYNSTYRVVSVLTVLHQDWLNGKEYKCKVSNKALPAPIEKTISKAKGQPREPQVYTLPPSRDELTKNQVSLTCLVKGFYPSDIAVEWESNGQPENNYKTTPPVLDSDGSFFLYSKLTVDKSRWQQGNVFSCSVMHEALHNHYTQKSLSLSPGK
light: B1 light
notes: also called 1-26; copies: 2 + 2
B2 showed a Mean binding response of 26.5 RU.

B3: anti-CD20 human IgG1 L234E/L235V/G236R (antibody)
heavy: B2 heavy with D238E, N239V
light: B1 light
notes: also called 1-46; 2-16; copies: 2 + 2
Work on B3 yielded a Mean binding response of 18.4 RU.

B4: anti-CD20 human IgG1 L234A/L235G/G236R (antibody)
heavy: not shown
light: B1 light
notes: also called 1-5; copies: 2 + 2
Binder B4 has a Mean binding response of 27.6 RU.

B5: anti-CD20 human IgG1 L234A/L235Q/G236R (antibody)
heavy: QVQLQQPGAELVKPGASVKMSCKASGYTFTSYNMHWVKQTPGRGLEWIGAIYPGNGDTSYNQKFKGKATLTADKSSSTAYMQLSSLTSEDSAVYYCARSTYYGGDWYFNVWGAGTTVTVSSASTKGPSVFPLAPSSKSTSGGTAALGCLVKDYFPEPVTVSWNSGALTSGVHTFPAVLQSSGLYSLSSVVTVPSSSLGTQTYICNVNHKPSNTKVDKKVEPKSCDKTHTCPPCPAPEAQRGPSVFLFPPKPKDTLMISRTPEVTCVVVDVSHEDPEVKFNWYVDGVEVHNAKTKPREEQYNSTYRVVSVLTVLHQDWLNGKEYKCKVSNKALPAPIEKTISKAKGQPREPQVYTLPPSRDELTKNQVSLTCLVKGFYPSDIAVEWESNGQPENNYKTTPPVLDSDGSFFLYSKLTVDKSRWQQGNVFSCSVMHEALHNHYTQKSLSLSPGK
light: B1 light
notes: also called 1-12; copies: 2 + 2
B5 was tested, and the Mean binding response was 34.3 RU.

B6: anti-CD20 human IgG1 L234D/L235I/G236R (antibody)
heavy: B2 heavy with N239I
light: B1 light
notes: also called 1-22; copies: 2 + 2
With B6 the Mean binding response was 25.3 RU.

B7: anti-CD20 human IgG1 L234A/G236R (antibody)
heavy: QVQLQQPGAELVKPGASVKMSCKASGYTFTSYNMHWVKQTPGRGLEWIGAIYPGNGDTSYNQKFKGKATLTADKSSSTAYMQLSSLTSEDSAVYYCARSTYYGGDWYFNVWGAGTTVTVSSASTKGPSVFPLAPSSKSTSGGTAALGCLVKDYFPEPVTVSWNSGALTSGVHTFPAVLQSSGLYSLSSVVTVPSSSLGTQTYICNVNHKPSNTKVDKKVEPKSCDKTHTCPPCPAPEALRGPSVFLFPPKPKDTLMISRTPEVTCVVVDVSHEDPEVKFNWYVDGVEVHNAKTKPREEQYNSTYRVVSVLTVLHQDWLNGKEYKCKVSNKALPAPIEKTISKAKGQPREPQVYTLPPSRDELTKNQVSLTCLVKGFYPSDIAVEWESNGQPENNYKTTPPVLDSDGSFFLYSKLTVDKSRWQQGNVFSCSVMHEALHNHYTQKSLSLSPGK
light: B1 light
notes: also called 1-9; copies: 2 + 2
For B7, the Mean binding response was 8 RU.

B8: anti-CD20 human IgG1 L234D/L235M/G236R (antibody)
heavy: B2 heavy with N239M
light: B1 light
notes: also called 1-25; copies: 2 + 2
B8 gave a Mean binding response of 28.4 RU.

B9: anti-CD20 human IgG1 L234E/L235Q/G236R (antibody)
heavy: B2 heavy with D238E, N239Q
light: B1 light
notes: also called 1-42; copies: 2 + 2
B9 showed a Mean binding response of 33.7 RU.

B10: anti-CD20 human IgG1 L234G/G236R (antibody)
heavy: not shown
light: B1 light
notes: also called 1-54; 2-85; copies: 2 + 2
B10 gave a Mean binding response of 28.5 RU.

B11: anti-CD20 human IgG1 L234D/G236R (antibody)
heavy: not shown
light: B1 light
notes: also called 1-24; 2-8; copies: 2 + 2
In the case of B11, the Mean binding response is reported as 11.9 RU.

B12: anti-CD20 human IgG1 L234A/L235E/G236R (antibody)
heavy: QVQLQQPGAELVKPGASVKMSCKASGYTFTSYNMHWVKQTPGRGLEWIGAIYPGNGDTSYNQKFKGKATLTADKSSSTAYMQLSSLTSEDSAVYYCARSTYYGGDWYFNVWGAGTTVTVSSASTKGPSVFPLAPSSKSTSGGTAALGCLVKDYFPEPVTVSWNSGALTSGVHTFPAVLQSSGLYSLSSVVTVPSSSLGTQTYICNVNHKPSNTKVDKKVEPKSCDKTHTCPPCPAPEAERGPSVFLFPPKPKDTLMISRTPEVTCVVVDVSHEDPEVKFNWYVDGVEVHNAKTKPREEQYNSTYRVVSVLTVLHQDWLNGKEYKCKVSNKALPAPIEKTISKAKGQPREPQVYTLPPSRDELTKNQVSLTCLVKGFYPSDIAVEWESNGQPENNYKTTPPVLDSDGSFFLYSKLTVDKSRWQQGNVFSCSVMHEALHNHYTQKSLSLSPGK
light: B1 light
notes: also called 1-4; copies: 2 + 2
B12 showed a Mean binding response of 31.7 RU.

B13: anti-CD20 human IgG1 L234A/L235V/G236R (antibody)
heavy: not shown
light: B1 light
notes: also called 1-16; copies: 2 + 2
Binder B13 has a Mean binding response of 25.8 RU.

B14: anti-CD20 human IgG1 L234E/L235A/G236R (antibody)
heavy: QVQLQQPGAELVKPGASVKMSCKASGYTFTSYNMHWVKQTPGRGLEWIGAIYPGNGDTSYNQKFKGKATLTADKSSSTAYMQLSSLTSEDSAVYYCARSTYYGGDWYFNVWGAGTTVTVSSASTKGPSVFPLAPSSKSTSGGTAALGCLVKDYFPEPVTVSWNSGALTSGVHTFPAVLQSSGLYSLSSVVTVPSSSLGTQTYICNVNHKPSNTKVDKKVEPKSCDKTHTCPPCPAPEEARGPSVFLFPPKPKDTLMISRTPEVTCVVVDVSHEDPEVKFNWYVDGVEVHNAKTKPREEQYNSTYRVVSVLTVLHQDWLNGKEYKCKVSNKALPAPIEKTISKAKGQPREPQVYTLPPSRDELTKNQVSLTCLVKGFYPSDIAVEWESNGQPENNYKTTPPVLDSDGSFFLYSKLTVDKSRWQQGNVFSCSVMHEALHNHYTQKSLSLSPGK
light: B1 light
notes: also called 1-32; copies: 2 + 2
B14 showed a Mean binding response of 44.1 RU.

B15: anti-CD20 human IgG1 L234E/G236R (antibody)
heavy: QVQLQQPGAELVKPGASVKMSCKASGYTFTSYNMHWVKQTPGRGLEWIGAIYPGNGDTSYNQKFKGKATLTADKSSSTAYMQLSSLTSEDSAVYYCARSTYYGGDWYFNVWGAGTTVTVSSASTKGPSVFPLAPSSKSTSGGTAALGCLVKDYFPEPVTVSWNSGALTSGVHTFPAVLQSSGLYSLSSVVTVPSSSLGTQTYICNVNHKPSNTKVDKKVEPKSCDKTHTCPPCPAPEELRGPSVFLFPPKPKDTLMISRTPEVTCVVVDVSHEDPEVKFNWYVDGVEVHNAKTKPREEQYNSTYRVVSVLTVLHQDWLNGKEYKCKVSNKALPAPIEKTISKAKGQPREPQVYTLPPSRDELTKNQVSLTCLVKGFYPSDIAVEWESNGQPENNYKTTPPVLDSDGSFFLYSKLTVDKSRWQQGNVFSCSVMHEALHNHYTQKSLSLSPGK
light: B1 light
notes: also called 1-39; 2-15; copies: 2 + 2
B15 was tested, and the Mean binding response was 17.6 RU.

B16: anti-CD20 human IgG1 L234A/L235K/G236R (antibody)
heavy: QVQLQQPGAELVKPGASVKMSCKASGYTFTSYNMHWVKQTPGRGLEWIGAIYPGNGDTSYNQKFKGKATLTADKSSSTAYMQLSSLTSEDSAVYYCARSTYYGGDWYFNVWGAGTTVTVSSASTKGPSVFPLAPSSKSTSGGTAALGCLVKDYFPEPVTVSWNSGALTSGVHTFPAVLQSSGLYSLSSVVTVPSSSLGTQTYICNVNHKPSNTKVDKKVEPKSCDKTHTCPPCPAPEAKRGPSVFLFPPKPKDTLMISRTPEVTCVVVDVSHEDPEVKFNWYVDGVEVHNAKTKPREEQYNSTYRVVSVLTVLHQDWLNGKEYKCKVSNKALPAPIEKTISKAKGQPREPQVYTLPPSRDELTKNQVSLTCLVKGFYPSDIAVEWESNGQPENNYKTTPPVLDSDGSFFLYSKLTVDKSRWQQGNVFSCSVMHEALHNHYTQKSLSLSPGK
light: B1 light
notes: also called 1-8; copies: 2 + 2
B16 showed a Mean binding response of 34.2 RU.

B17: anti-CD20 human IgG1 L234E/L235K/G236R (antibody)
heavy: B2 heavy with D238E, N239K
light: B1 light
notes: also called 1-38; copies: 2 + 2
B17 showed a Mean binding response of 34.1 RU.

B18: anti-CD20 human IgG1 L234G/L235D/G236R (antibody)
heavy: B2 heavy with D238G, N239D
light: B1 light
notes: also called 1-48; copies: 2 + 2
B18 gave a Mean binding response of 23.6 RU.

B19: anti-CD20 human IgG1 L234G/L235G/G236R (antibody)
heavy: B2 heavy with D238G, N239G
light: B1 light
notes: also called 1-50; copies: 2 + 2
For B19, the Mean binding response was 29.5 RU.

B20: anti-CD20 human IgG1 L234G/L235A/G236R (antibody)
heavy: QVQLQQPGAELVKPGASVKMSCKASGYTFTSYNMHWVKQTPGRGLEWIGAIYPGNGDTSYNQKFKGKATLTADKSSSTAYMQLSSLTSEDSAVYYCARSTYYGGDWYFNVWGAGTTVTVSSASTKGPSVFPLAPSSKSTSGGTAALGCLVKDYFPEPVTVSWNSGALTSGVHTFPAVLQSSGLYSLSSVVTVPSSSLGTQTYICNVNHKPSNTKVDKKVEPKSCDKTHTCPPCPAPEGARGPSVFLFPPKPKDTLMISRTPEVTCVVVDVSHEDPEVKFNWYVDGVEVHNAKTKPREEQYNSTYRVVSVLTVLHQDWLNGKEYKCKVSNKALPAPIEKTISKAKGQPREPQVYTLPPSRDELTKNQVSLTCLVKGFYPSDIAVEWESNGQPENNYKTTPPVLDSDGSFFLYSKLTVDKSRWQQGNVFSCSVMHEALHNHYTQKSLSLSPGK
light: B1 light
notes: also called 1-47; copies: 2 + 2
B20 showed a Mean binding response of 23 RU.

B21: anti-CD20 human IgG1 L234E/L235H/G236R (antibody)
heavy: B2 heavy with D238E, N239H
light: B1 light
notes: also called 1-36; 2-13; copies: 2 + 2
B21 was tested, and the Mean binding response was 21.4 RU.

B22: anti-CD20 human IgG1 L234A/L235R/G236R (antibody)
heavy: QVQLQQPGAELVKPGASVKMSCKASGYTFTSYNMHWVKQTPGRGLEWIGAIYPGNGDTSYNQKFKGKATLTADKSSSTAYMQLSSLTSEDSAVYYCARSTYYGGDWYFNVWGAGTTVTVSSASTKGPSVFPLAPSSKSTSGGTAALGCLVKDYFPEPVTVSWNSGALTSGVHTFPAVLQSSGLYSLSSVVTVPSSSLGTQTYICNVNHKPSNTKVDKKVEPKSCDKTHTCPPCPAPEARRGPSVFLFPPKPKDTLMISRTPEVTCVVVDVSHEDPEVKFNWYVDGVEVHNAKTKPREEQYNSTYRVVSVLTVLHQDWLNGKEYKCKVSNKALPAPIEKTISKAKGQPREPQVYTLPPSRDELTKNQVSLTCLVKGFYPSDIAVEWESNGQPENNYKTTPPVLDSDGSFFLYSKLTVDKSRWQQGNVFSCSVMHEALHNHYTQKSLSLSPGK
light: B1 light
notes: also called 1-13; copies: 2 + 2
Binder B22 has a Mean binding response of 26.9 RU.

B23: anti-CD20 human IgG1 L234A/L235I/G236R (antibody)
heavy: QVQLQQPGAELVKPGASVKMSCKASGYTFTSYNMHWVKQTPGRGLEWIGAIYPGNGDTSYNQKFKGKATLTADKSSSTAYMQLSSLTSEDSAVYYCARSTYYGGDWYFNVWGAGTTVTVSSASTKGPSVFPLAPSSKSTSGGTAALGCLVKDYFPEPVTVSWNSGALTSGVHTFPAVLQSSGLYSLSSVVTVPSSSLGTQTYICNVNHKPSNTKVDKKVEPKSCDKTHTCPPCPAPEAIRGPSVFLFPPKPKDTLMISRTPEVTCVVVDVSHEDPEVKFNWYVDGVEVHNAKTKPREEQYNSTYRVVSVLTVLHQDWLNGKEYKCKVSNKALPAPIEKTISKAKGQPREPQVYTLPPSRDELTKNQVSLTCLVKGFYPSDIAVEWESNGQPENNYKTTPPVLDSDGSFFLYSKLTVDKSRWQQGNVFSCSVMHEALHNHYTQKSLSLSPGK
light: B1 light
notes: also called 1-7; copies: 2 + 2
B23 gave a Mean binding response of 28.4 RU.

B24: anti-CD20 human IgG1 L234E/L235E/G236R (antibody)
heavy: B2 heavy with D238E, N239E
light: B1 light
notes: also called 1-34; copies: 2 + 2
With B24 the Mean binding response was 30.9 RU.

B25: anti-CD20 human IgG1 L234E/L235T/G236R (antibody)
heavy: B2 heavy with D238E, N239T
light: B1 light
notes: also called 1-45; copies: 2 + 2
B25 gave a Mean binding response of 29.6 RU.

B26: anti-CD20 human IgG1 L234D/L235T/G236R (antibody)
heavy: B2 heavy with N239T
light: B1 light
notes: also called 1-30; 2-11; copies: 2 + 2
For B26, the Mean binding response was 4.3 RU.

B27: anti-CD20 human IgG1 L234D/L235R/G236R (antibody)
heavy: B2 heavy with N239R
light: B1 light
notes: also called 1-28; copies: 2 + 2
B27 gave a Mean binding response of 47 RU.

B28: anti-CD20 human IgG1 L234A/L235D/G236R (antibody)
heavy: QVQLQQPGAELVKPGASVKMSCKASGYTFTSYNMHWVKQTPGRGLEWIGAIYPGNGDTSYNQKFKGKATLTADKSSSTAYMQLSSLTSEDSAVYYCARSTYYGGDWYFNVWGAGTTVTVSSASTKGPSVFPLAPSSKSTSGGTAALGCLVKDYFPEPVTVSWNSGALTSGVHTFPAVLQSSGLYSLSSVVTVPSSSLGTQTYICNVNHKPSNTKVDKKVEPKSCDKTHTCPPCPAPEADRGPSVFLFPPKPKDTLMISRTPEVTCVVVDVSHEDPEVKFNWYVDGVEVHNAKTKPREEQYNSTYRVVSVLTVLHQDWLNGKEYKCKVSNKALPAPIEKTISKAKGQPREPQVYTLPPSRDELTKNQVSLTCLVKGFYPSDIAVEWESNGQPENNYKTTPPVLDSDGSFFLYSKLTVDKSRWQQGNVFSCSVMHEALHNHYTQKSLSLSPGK
light: B1 light
notes: also called 1-3; copies: 2 + 2
In the case of B28, the Mean binding response is reported as 28 RU.

B29: anti-CD20 human IgG1 L234G/L235E/G236R (antibody)
heavy: B2 heavy with D238G, N239E
light: B1 light
notes: also called 1-49; copies: 2 + 2
B29 was tested, and the Mean binding response was 31.8 RU.

B30: anti-CD20 human IgG1 L234D/L235V/G236R (antibody)
heavy: B2 heavy with N239V
light: B1 light
notes: also called 1-31; copies: 2 + 2
B30 showed a Mean binding response of 27.2 RU.

B31: anti-CD20 human IgG1 L234A/L235H/G236R (antibody)
heavy: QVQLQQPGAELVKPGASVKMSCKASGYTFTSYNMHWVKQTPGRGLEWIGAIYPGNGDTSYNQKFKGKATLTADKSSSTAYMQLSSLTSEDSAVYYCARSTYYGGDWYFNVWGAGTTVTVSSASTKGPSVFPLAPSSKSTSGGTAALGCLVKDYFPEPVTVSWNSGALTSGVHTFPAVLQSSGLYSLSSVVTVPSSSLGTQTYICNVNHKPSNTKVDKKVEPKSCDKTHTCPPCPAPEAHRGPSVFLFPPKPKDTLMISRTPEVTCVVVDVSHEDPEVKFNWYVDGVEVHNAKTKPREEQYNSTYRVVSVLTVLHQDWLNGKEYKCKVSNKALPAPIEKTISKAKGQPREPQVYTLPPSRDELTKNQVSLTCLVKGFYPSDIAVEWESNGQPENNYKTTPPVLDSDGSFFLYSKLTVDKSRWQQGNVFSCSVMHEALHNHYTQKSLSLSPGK
light: B1 light
notes: also called 1-6; copies: 2 + 2
In the case of B31, the Mean binding response is reported as 23 RU.

B32: anti-CD20 human IgG1 L234E/L235S/G236R (antibody)
heavy: B2 heavy with D238E, N239S
light: B1 light
notes: also called 1-44; copies: 2 + 2
In the case of B32, the Mean binding response is reported as 39.2 RU.

B33: anti-CD20 human IgG1 L234D/L235D/G236R (antibody)
heavy: B2 heavy with N239D
light: B1 light
notes: also called 1-18; copies: 2 + 2
B33 showed a Mean binding response of 22 RU.

B34: anti-CD20 human IgG1 L234A/L235M/G236R (antibody)
heavy: not shown
light: B1 light
notes: also called 1-10; copies: 2 + 2
With B34 the Mean binding response was 27.4 RU.

B35: anti-CD20 human IgG1 L234D/L235G/G236R (antibody)
heavy: B2 heavy with N239G
light: B1 light
notes: also called 1-20; copies: 2 + 2
B35 showed a Mean binding response of 27.3 RU.

B36: anti-CD20 human IgG1 L234D/L235E/G236R (antibody)
heavy: B2 heavy with N239E
light: B1 light
notes: also called 1-19; copies: 2 + 2
B36 was tested, and the Mean binding response was 22.1 RU.

B37: anti-CD20 human IgG1 L234E/L235R/G236R (antibody)
heavy: B2 heavy with D238E, N239R
light: B1 light
notes: also called 1-43; copies: 2 + 2
For B37, the Mean binding response was 26.7 RU.

B38: anti-CD20 human IgG1 L234E/L235G/G236R (antibody)
heavy: B2 heavy with D238E, N239G
light: B1 light
notes: also called 1-35; copies: 2 + 2
B38 gave a Mean binding response of 71.2 RU.

B39: anti-CD20 human IgG1 L234D/L235A/G236R (antibody)
heavy: not shown
light: B1 light
notes: also called 1-17; copies: 2 + 2
Work on B39 yielded a Mean binding response of 29.6 RU.

B40: anti-CD20 human IgG1 L234D/L235Q/G236R (antibody)
heavy: B2 heavy with N239Q
light: B1 light
notes: also called 1-27; 2-9; copies: 2 + 2
B40 gave a Mean binding response of 8.3 RU.

B41: anti-CD20 human IgG1 L234G/L235H/G236R (antibody)
heavy: B2 heavy with D238G, N239H
light: B1 light
notes: also called 1-51; 2-17; copies: 2 + 2
For B41, the Mean binding response was 19 RU.
